From patent US20200339676A1 (University of California, published 2020)

What was measured:
[1] = target: Endogenous NOTCH1 (MDA-MB-231 cell lysate) (UniProt P46531 19-2555, limits assumed); assay: co-immunoprecipitation of endogenous proteins, MDA-MB-231 lysates, Western blot
Protocol: (§1) Notch receptor activation can be regulated through direct interactions with binding partners²⁴. […] To address this possibility, co-immunoprecipitation experiments were performed using MBA-MD-231 cells lysates, which express detectable levels of all four Notch receptors (NOTCH1-4). Endogenous ROBO1 co-immunoprecipitated with NOTCH4, but not […], NOTCH2 or NOTCH3 (FIG. 3H and data not shown). Next, the expression and subcellular localization of the NOTCH4 intracellular domain (N4-ICD) and HES1 was examined in control (Scr) and Robo1 (siR1) knockdown HC11 cells. Expression of Robo1 was inhibited in HC11 cells that were then primed for differentiation as described above. […] This effect was not observed in control Robo1 knockdown cells engineered to overexpress Robo1 (siR1+o/e) or cells treated with the γ-secretase inhibitor GSI (siR1+GSI) (FIGS. 3I-3K).
(§2) Adherent cells were lysed in 1 mL of 1× lysis buffer ([…] NaCl, 10 mM Tris-HCl pH8, […] EDTA, 1 mM sodium orthovanadate) supplemented with 1 percent Igepal NP40 (Sigma), 1 mM phenylmethanesulfonylfluoride (PMSF), 1 mM leupeptin, 1 mM aprotinin, and phosphatase inhibitors (Roche Complete). Cell lysate was incubated for 15 minutes at 4° C. with gentle rocking followed by centrifugation at 12,000 rpms for 10 minutes. […]

[2] = target: Endogenous NOTCH2 (MDA-MB-231 cell lysate) (UniProt Q04721 26-2471, limits assumed); assay: co-immunoprecipitation of endogenous proteins, MDA-MB-231 lysates (data not shown)
Chain of Endogenous NOTCH2 (MDA-MB-231 cell lysate) (Q04721 26-2471 limits assumed): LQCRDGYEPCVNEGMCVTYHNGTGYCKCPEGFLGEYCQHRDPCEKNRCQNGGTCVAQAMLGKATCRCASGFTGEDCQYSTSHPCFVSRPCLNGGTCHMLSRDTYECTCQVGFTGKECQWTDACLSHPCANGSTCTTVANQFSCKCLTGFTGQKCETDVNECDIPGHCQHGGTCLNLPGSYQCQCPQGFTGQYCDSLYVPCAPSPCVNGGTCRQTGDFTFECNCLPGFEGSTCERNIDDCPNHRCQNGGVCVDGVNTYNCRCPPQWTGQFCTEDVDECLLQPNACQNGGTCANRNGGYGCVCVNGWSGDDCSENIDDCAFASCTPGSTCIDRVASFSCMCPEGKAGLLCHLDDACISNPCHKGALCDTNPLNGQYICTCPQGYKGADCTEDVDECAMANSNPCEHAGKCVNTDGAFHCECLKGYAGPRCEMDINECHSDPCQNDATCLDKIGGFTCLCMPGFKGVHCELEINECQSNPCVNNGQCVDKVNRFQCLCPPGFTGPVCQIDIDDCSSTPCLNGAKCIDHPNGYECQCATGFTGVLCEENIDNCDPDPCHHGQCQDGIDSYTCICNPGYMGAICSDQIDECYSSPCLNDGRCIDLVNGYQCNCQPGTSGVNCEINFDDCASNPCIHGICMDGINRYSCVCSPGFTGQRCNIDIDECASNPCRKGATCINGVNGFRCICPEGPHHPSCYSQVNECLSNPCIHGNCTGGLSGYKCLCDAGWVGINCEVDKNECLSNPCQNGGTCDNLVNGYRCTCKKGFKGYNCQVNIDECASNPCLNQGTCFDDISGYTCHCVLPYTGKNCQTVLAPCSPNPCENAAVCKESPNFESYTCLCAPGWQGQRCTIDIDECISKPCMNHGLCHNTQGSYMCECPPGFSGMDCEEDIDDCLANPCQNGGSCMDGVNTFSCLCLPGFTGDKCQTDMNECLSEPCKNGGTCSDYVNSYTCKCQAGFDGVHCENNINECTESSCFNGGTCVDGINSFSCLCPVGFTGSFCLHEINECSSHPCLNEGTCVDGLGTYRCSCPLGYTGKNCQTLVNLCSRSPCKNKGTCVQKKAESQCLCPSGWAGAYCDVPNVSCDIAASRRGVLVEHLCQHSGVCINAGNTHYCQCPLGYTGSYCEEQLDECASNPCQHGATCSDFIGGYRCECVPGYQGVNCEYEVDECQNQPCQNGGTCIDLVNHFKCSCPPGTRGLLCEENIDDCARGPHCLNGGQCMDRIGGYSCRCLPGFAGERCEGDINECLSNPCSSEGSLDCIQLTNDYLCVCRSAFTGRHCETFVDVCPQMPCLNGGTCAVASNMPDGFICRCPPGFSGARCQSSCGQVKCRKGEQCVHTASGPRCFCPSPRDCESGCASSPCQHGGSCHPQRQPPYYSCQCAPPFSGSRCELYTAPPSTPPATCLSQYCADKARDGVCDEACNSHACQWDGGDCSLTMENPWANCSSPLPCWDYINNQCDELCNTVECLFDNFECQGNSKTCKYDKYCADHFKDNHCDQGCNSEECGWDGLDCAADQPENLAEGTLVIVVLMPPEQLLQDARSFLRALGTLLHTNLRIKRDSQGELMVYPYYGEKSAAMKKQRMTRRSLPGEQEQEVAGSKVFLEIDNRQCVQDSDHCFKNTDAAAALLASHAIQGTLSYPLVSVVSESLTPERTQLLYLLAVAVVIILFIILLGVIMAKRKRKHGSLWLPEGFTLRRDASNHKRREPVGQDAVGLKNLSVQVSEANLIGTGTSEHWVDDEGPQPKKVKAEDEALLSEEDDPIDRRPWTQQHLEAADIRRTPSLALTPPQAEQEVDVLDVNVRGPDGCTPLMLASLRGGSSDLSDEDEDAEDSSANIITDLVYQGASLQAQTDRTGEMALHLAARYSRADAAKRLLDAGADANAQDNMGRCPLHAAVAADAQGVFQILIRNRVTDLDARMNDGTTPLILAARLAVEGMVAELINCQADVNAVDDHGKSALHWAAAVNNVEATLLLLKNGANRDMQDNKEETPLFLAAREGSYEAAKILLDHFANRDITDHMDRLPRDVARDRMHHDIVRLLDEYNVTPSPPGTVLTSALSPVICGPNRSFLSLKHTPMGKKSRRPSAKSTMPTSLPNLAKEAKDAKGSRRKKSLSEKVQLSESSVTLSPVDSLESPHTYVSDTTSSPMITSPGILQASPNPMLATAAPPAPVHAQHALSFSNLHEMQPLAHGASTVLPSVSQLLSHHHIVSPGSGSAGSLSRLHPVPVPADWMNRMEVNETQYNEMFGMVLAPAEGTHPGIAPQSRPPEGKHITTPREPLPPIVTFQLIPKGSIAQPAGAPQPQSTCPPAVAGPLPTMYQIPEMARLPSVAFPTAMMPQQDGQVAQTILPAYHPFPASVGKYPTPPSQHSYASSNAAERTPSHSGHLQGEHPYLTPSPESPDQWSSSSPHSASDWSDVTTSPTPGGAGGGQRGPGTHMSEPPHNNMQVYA
Protocol: as §1, §2

[3] = target: Endogenous NOTCH3 (MDA-MB-231 cell lysate) (UniProt Q9UM47 40-2321, limits assumed); assay: as above
Protocol: as §1, §2

Chain of Endogenous NOTCH1 (MDA-MB-231 cell lysate) (P46531 19-2555 limits assumed): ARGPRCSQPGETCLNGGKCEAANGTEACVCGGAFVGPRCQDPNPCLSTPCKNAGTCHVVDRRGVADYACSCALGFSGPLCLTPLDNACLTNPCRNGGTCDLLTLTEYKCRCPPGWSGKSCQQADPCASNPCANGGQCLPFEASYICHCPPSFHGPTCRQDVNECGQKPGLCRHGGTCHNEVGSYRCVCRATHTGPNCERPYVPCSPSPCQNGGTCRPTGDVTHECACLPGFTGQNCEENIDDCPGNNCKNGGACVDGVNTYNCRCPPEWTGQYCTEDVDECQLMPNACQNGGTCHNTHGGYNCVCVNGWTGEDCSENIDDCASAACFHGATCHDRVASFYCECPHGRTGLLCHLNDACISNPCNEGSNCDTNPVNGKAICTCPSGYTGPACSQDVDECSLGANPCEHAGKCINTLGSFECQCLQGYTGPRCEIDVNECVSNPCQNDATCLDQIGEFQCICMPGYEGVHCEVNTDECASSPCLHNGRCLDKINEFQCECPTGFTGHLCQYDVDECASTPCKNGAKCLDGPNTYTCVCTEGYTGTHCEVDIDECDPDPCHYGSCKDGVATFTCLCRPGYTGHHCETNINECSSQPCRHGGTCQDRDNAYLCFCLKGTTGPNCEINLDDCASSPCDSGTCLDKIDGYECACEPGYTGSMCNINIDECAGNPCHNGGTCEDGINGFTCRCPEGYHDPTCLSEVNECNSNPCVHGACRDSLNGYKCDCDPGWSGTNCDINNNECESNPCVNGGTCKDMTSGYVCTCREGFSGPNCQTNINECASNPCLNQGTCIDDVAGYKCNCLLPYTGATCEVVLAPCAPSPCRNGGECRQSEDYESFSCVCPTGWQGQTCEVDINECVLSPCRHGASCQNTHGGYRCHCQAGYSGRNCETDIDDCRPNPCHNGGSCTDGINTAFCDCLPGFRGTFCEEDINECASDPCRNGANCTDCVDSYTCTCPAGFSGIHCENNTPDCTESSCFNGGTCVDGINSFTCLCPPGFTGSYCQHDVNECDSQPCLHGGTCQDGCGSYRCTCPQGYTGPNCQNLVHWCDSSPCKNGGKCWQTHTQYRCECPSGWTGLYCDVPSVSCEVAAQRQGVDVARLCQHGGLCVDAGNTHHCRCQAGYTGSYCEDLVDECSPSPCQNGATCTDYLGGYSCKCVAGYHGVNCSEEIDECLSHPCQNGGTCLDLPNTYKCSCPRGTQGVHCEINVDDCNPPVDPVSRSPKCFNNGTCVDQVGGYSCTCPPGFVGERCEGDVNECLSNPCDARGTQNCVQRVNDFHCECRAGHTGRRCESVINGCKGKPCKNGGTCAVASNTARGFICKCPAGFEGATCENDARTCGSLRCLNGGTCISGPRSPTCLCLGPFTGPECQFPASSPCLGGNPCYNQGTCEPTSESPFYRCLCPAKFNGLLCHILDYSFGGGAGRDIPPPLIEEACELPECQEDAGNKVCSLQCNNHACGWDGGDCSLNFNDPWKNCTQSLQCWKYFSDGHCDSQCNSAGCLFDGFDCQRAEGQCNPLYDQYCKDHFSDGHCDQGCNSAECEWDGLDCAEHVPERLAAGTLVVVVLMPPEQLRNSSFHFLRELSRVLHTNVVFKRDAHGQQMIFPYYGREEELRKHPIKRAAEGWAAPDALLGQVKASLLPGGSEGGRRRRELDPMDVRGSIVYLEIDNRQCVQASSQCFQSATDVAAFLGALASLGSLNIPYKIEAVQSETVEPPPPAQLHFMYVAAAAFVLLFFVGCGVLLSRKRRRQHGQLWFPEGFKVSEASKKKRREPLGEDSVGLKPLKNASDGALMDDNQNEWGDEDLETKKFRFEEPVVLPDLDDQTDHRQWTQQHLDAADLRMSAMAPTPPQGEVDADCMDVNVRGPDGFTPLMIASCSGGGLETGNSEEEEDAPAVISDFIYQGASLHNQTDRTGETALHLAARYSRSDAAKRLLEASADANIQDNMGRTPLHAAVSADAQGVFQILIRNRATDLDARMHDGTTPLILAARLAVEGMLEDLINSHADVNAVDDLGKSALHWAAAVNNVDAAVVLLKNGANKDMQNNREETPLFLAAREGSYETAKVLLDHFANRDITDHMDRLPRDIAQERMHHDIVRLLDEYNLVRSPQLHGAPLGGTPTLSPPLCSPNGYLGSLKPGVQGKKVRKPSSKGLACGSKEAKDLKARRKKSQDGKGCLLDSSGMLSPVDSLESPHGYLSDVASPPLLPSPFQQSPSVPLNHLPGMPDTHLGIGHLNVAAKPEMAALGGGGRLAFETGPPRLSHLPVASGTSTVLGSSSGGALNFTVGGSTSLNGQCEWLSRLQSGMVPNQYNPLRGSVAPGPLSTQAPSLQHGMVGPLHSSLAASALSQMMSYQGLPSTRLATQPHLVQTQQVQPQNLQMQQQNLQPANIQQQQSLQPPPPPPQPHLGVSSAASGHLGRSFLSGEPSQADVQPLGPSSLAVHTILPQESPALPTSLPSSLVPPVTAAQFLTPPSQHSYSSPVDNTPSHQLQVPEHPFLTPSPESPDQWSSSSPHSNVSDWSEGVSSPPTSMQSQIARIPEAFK

- binding result [1]: no binding
- binding result [2]: no binding
- binding result [3]: no binding
B1: Endogenous ROBO1 (MDA-MB-231 and HEK293 cell lysates) (receptor, UniProt Q9Y6N7 26-1651, looked up)
chain: QLIPDPEDVERGNDHGTPIPTSDNDDNSLGYTGSRLRQEDFPPRIVEHPSDLIVSKGEPATLNCKAEGRPTPTIEWYKGGERVETDKDDPRSHRMLLPSGSLFFLRIVHGRKSRPDEGVYVCVARNYLGEAVSHNASLEVAILRDDFRQNPSDVMVAVGEPAVMECQPPRGHPEPTISWKKDGSPLDDKDERITIRGGKLMITYTRKSDAGKYVCVGTNMVGERESEVAELTVLERPSFVKRPSNLAVTVDDSAEFKCEARGDPVPTVRWRKDDGELPKSRYEIRDDHTLKIRKVTAGDMGSYTCVAENMVGKAEASATLTVQEPPHFVVKPRDQVVALGRTVTFQCEATGNPQPAIFWRREGSQNLLFSYQPPQSSSRFSVSQTGDLTITNVQRSDVGYYICQTLNVAGSIITKAYLEVTDVIADRPPPVIRQGPVNQTVAVDGTFVLSCVATGSPVPTILWRKDGVLVSTQDSRIKQLENGVLQIRYAKLGDTGRYTCIASTPSGEATWSAYIEVQEFGVPVQPPRPTDPNLIPSAPSKPEVTDVSRNTVTLSWQPNLNSGATPTSYIIEAFSHASGSSWQTVAENVKTETSAIKGLKPNAIYLFLVRAANAYGISDPSQISDPVKTQDVLPTSQGVDHKQVQRELGNAVLHLHNPTVLSSSSIEVHWTVDQQSQYIQGYKILYRPSGANHGESDWLVFEVRTPAKNSVVIPDLRKGVNYEIKARPFFNEFQGADSEIKFAKTLEEAPSAPPQGVTVSKNDGNGTAILVSWQPPPEDTQNGMVQEYKVWCLGNETRYHINKTVDGSTFSVVIPFLVPGIRYSVEVAASTGAGSGVKSEPQFIQLDAHGNPVSPEDQVSLAQQISDVVKQPAFIAGIGAACWIILMVFSIWLYRHRKKRNGLTSTYAGIRKVPSFTFTPTVTYQRGGEAVSSGGRPGLLNISEPAAQPWLADTWPNTGNNHNDCSISCCTAGNGNSDSNLTTYSRPADCIANYNNQLDNKQTNLMLPESTVYGDVDLSNKINEMKTFNSPNLKDGRFVNPSGQPTPYATTQLIQSNLSNNMNNGSGDSGEKHWKPLGQQKQEVAPVQYNIVEQNKLNKDYRANDTVPPTIPYNQSYDQNTGGSYNSSDRGSSTSGSQGHKKGARTPKVPKQGGMNWADLLPPPPAHPPPHSNSEEYNISVDESYDQEMPCPVPPARMYLQQDELEEEEDERGPTPPVRGAASSPAAVSYSHQSTATLTPSPQEELQPMLQDCPEETGHMQHQPDRRRQPVSPPPPPRPISPPHTYGYISGPLVSDMDTDAPEEEEDEADMEVAKMQTRRLLLRGLEQTPASSVGDLESSVTGSMINGWGSASEEDNISSGRSSVSSSDGSFFTDADFAQAVAAAAEYAGLKVARRQMQDAAGRRHFHASQCPRPTSPVSTDSNMSAAVMQKTRPAKKLKHQPGHLRRETYTDDLPPPPVPPPAIKSPTAQSKTQLEVRPVVVPKLPSMDARTDRSSDRKGSSYKGREVLDGRQVVDMRTNPGDPREAQEQQNDGKGRGNKAAKRDLPPAKTHLIQEDILPYCRPTFPTSNNPRDPSSSSSMSSRGSGSRQREQANVGRRNIAEMQVLGGYERGEDNNEELEETES
notes: Endogenous full-length receptor in detergent cell lysate, immunoprecipitated with an anti-ROBO1 antibody; Human is inferred from the cell lines; also called R1
